Results as given in IntAct's records for PubMed 9299557.

B1: Tumor necrosis factor alpha-induced protein 3 (Homo sapiens), P21580 (parent)
chain: MAEQVLPQALYLSNMRKAVKIRERTPEDIFKPTNGIIHHFKTMHRYTLEMFRTCQFCPQFREIIHKALIDRNIQATLESQKKLNWCREVRKLVALKTNGDGNCLMHATSQYMWGVQDTDLVLRKALFSTLKETDTRNFKFRWQLESLKSQEFVETGLCYDTRNWNDEWDNLIKMASTDTPMARSGLQYNSLEEIHIFVLCNILRRPIIVISDKMLRSLESGSNFAPLKVGGIYLPLHWPAQECYRYPIVLGYDSHHFVPLVTLKDSGPEIRAVPLVNRDRGRFEDLKVHFLTDPENEMKEKLLKEYLMVIEIPVQGWDHGTTHLINAAKLDEANLPKEINLVDDYFELVQHEYKKWQENSEQGRREGHAQNPMEPSVPQLSLMDVKCETPNCPFFMSVNTQPLCHECSERRQKNQNKLPKLNSKPGPEGLPGMALGASRGEAYEPLAWNPEESTGGPHSAPPTAPSPFLFSETTAMKCRSPGCPFTLNVQHNGFCERCHNARQLHASHAPDHTRHLDPGKCQACLQDVTRTFNGICSTCFKRTTAEASSSLSTSLPPSCHQRSKSDPSRLVRSPSPHSCHRAGNDAPAGCLSQAARTPGDRTGTSKCRKAGCVYFGTPENKGFCTLCFIEYRENKHFAAASGKVSPTASRFQNTIPCLGRECGTLGSTMFEGYCQKCFIEAQNQRFHEAKRTEEQLRSSQRRDVPRTTQSTSRPKCARASCKNILACRSEELCMECQHPNQRMGPGAHRGEPAPEDPPKQRCRAPACDHFGNAKCNGYCNECFQFKQMYG
B2: Tumor necrosis factor alpha-induced protein 3 (Homo sapiens), P21580 (parent)
chain: B1 chain
partner: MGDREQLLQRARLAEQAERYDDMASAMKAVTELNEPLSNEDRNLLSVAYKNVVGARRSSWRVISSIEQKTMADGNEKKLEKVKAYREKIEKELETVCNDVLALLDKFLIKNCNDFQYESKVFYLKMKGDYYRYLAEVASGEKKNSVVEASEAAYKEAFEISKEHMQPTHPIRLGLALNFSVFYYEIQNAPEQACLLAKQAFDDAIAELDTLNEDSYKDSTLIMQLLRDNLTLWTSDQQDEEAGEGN

Variants of: B1
Conditions: with 1433z_mouse Ywhaz

Variant	effect of a mutation on the interaction
R562A	disrupting interaction
S565A	disrupting interaction

Variants of: B2
Conditions: with 1433f_mouse Ywhah

Variant	effect of a mutation on the interaction
R562A	disrupting interaction
S565A	disrupting interaction
